Positions count from the first letter of the chain named.
B1: mAb25491 (antibody, human IgG4, V domains shown)
VH: QVQLVQSGAEVMKPGASVKVSCKASGYTFTGYYIHWVRQAPGQGLEWMGWITPNSGATNYAQKFQGRVTLTRDTSISTAYMELTRLKSDDTAVYYCARGGQLEFFYYYYGMDVWGQGTTVTVSS
VL: DIQMTQSPSSLSASAGDRVTITCRASQSIDSYLNWYQQKPGKAPKLLISATSGFQSGVPSRFSGSGSGTDFTLTISSLQPEDFGTYYCQQSYTTPITFGQGTRLEIK
B2: mAb25498 (antibody, human IgG4, V domains shown)
VH: QVQLVESGGGVVQPGRSLRLSCVASGFTFSSYGMVWVRQTPGKGLEWVAVIWHDGTNNYYADSVKGRFTISRDNSKNTLYLQMNSLRAEDTAVYYCAREPWLVRGYYYYAMDVWGQGTTVTVSS
VL: not shown
B3: mAb25497 (antibody, human IgG4, V domains shown)
VH: QVQLVQSGAEVKEPGASVKVSCKASGYTFTDYYIHWVRQAPGQGLEWMGWINLNSGGKNHAQKFQGRVTVTSDTSINTAYIELGRLRGDDTAVYYCSRGGGSHYYYYYHGMDVWGQGTTVTVSS
VL: DIQMTQSPSSLSASVGDRITITCRASHSIDSYLNWYQQKPGKAPKLLIYPASTLQSGVPSRFSGSGSGTDFTLTISSLQPEDSAIYYCQQSYSTPLTFGGGTKVEIK
B4: mAb25479 (antibody, human IgG4, V domains shown)
VH: QVQLVQSGAEVKKPGASVKVSCKASGYTFTGYYIHWVRQAPGQGLEWMGWINPNSIGTNYAQKFQGRVTLTRDTSISTAYMELSSLRSDDTAVYYCARGGSSSYYYYYYGMDVWGQGTTVTVSS
VL: B3 VL with I19V, H27Q, S31N, P50V, T53S, S83F, I85T
B5: mAb22035 (antibody, human IgG4, V domains shown)
VH: EVQLVESGGGLVQPGRSLRLSCAASGFTFDDYAMHWVRQAPGKGLEWVSGISWNSGTIGYADSVKGRFTMSRDNAKNSLYLQMNSLRPEDTALYYCAKDMGVSLALWGAFDIWGQGTMVTVSS
VL: DIQMTQSPSSLSASVGDKVTITCRASQNIRTYLNWYQQKPGKAPKVLISTASSLQSGVPSRFSGSGSGTDFTLTISSLQPEDFAVFYCQQSFGIPRTFGQGTKVEIK

Experiments:
[1] = target: T1, human NPR1 on HEK293/hNPR1.myc.DDK cells (0 hANP) (human, UniProt P16066 33-1061); experiment: ECL cell binding (MSD), 0 hANP
T1 construct: Full-length receptor on engineered HEK293 cells, no ANP added; also called HEK293/hNPR1.myc.DKK
T1 sequence: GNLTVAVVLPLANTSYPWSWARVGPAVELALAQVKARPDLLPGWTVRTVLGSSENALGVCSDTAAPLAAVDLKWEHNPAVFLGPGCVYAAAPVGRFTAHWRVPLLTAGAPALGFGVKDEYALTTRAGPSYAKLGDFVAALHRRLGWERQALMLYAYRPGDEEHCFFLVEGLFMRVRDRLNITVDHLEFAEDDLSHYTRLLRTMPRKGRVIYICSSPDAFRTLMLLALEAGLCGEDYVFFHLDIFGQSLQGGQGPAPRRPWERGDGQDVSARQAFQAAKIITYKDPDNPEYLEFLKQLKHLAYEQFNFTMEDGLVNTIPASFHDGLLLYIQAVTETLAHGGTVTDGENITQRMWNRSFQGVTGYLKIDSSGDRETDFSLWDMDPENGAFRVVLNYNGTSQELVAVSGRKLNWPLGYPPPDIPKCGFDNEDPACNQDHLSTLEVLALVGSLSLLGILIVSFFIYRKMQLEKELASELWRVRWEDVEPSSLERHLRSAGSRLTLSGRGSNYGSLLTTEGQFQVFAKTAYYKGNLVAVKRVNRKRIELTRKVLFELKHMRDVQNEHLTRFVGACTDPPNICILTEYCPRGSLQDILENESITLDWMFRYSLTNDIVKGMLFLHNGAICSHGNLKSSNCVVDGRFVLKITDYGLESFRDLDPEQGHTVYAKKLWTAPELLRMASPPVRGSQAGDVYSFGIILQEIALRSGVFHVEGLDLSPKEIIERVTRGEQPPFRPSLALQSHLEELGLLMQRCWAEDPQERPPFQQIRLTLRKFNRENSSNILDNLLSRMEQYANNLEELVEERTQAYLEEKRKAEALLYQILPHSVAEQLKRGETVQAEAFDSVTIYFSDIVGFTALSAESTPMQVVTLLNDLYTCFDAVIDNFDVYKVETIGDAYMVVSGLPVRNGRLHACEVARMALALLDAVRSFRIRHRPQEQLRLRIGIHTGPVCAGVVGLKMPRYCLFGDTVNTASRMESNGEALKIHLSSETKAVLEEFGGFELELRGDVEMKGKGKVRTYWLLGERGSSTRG
Procedure: (§1) All cells were washed once with 1×PBS with Ca²⁺/Mg²⁺ and counted with a Cellometer™ Auto T4 cell counter (Nexcelom Bioscience). Approximately 2.0×10⁴ HEK293/hNPR1.myc.DDK or HEK293 cells were seeded separately onto 96-well carbon electrode plates (MULTI-ARRAY high bind plate, Meso Scale Discovery (MSD, Rockville, MD)) and incubated for 1 hour (h) at 37° C. Nonspecific binding sites were blocked by 2% BSA (w/v) in 1×PBS with Ca²⁺/Mg²⁺for 1 h at room temperature (RT). HEK293/hNPR1.myc. […] The plate-bound antibodies were detected with SULFO-TAG™-conjugated goat polyclonal anti-human IgG antibody specific for heavy and light chains (Jackson Immunoresearch, West Grove, PA) for 1 h, RT.
(§2) After washes, plates were developed with Read Buffer (MSD, Rockville, MD) according to manufacturer's recommended procedure and luminescent signals were recorded with a SECTOR Imager 600 (MSD, Rockville, MD). Luminescence intensity, measured in relative light units (RLU), was recorded to indicate the binding intensity of each antibody at the range of concentrations.
(§3) In addition, direct binding signals (RLU) were analyzed as a function of the antibody concentration and data were fitted with a sigmoidal (four-parameter logistic) dose-response model using R statistical package (open source).

[2] = target: T2, human NPR1 on HEK293/hNPR1.myc.DDK cells with 10 nM hANP (NPR1-ANP complex) (human, UniProt P01160 124-151); experiment: ECL cell binding (MSD), +10 nM hANP
T2 construct: also called NPR1-ANP Complex on the Cell Surface
T2 sequence: T1 sequence
T2 sequence (peptide): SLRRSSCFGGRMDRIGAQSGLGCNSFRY
Procedure: as §1, §2, §3

mfNPR1-mFc:hBNP complex = target: T3, mfNPR1-mFc:hBNP complex (monkey; human, UniProt P16860 103-134); experiment: SPR Biacore, mAb captured by anti-human Fc, 37C
T3 construct: Receptor-Fc pre-complexed with 10-fold hBNP
Procedure: (§4) Equilibrium dissociation constant (KD) for different NPR1 reagents binding to purified anti-NPR1 monoclonal antibodies (mAbs) were determined using a real-time surface plasmon resonance based Biacore 4000 biosensor. All binding studies were performed in 10 mM HEPES, 150 mM NaCl, 3 mM EDTA, and 0.05% v/v Surfactant Tween-20, pH 7.4 (HBS-ET) running buffer at 25° C. and 37° C. The Biacore CM5 sensor chip surface was first derivatized by amine coupling with either mouse anti-human Fc specific mAb (GE Healthcare, #BR100839) or goat anti-human Fcy specific polyclonal antibody (Jackson ImmunoResearch Laboratories, #BR-1008-39) to capture anti-NPR1 mAbs.

mNPR1-mFc [3] = target: T4, mNPR1-mFc (mouse); experiment: SPR Biacore, mAb captured by anti-human Fc, 37C
T4 construct: also called mouse NPR1 extracellular domain expressed with a C-terminal mouse IgG2a
T4 chain: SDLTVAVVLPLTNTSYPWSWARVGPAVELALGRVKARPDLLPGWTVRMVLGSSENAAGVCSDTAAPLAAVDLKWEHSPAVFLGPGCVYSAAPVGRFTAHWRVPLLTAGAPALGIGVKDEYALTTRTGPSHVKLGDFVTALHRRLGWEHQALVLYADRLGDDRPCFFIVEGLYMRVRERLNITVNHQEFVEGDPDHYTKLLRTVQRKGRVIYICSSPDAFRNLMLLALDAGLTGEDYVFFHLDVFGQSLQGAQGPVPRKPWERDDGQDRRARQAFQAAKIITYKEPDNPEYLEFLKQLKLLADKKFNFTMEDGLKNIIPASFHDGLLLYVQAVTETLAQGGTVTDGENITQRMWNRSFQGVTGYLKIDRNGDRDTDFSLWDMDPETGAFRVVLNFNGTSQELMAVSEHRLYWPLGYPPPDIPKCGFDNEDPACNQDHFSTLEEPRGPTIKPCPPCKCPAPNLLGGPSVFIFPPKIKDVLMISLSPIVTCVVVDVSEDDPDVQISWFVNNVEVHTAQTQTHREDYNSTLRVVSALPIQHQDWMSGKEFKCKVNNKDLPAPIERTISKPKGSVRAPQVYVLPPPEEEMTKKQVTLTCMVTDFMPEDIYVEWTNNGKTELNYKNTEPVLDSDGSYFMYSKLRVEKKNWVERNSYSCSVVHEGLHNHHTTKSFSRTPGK
Procedure: as §4

[4] = target: T1, human NPR1 on HEK293/hNPR1.myc.DDK …; experiment: cell-based or functional assay
mNPR1-mFc [5] = target: T4, mNPR1-mFc; experiment: SPR Biacore, mAb captured by anti-human Fc, 25C
Procedure: as §4

Binder | EC50 [1] | Ratio at 3.7 nM Ab concentration of Cell Binding Signal (RLU) to HEK293/hNPR1.myc.DKK relative to parental HEK293 [1] | EC50 [2] | Ratio at 3.7 nM Ab concentration of Cell Binding Signal (RLU) to HEK293/hNPR1.myc.DKK relative to parental HEK293 [2] | 100 nM Ag Bound (RU) (mfNPR1-mFc:hBNP complex) | Kd (mfNPR1-mFc:hBNP complex) | koff (mfNPR1-mFc:hBNP complex) | kon (mfNPR1-mFc:hBNP complex) | t½ (mfNPR1-mFc:hBNP complex) | 100 nM Ag Bound (RU) (mNPR1-mFc [3]) | binding result (mNPR1-mFc [3]) | % Activation (vs ANP max), Expt 1 [4] | % Activation (vs. ANP max), Expt II [4] | EC50 (nM), calcium flux, Expt 1 [4] | EC50 (nM), calcium flux, Expt II [4] | 100 nM Ag Bound (RU) (mNPR1-mFc [5])
B1 | 1.6 nM | 58 ratio | 1 nM | 78 ratio | 146 RU | 1.6 nM | 0.00011 s⁻¹ | 68900 M⁻¹ s⁻¹ | 1.75 h | 1 RU | no binding (tested: 100 nM) | 74.6% | 104% | 102 nM | 43.4 nM | 1 RU
B2 | 4.6 nM | 41 ratio | 1.8 nM | 49 ratio | 113 RU | 8.91 nM | 0.000464 s⁻¹ | 52100 M⁻¹ s⁻¹ | 0.415 h | 0 RU | no binding (tested: 100 nM) | 67.7% | – | 335 nM | – | 0 RU
B3 | 1.5 nM | 50 ratio | 0.87 nM | 87 ratio | 100 RU | 2.9 nM | 0.000166 s⁻¹ | 57400 M⁻¹ s⁻¹ | 1.16 h | 1 RU | no binding (tested: 100 nM) | 71.1% | 103% | 72.6 nM | 56.4 nM | 1 RU
B4 | 1.7 nM | 30 ratio | 1.2 nM | 51 ratio | 135 RU | 5.53 nM | 0.000293 s⁻¹ | 53000 M⁻¹ s⁻¹ | 0.657 h | 2 RU | – | 66.7% | 82.8% | 174 nM | 102 nM | -1 RU
B5 | 2.3 nM | 151 ratio | 0.89 nM | 220 ratio | 286 RU | 0.368 nM | 9.48e-05 s⁻¹ | 258000 M⁻¹ s⁻¹ | 2.03 h | 0 RU | – | 73.1% | 56.8% | 384 nM | > 200 nM | -1 RU

— patent US20240309103A1 (Regeneron, published 2024)
